Experiment [1] has as its target Cub fusion of mature GENOMES UNCOUPLED 4 (GUN4) (Arabidopsis thaliana) (UniProt Q9LX31).
For experiment [2] the target is unchanged. This is another data set of the same source.

Sequence of UniProt Q9LX31 (Q9LX31 70-265): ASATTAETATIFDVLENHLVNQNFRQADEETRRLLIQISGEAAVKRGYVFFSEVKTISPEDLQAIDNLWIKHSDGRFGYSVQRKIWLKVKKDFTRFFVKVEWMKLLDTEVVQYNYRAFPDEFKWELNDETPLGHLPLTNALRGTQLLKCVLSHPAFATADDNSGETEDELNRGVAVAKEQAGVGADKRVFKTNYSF

On to “NubG-BCM1 (mature BALANCE of CHLOROPHYLL METABOLISM 1) (natural protein)”, for which, in experiment [1], the in vitro MgCh activity (MgP formed, HPLC) of recombinant MgCh subunits with His-GUN4: thylakoids from BCM1-OX3/gun4-1 against thylakoids from bcm1-3 gun4-1 seedlings was 12%. In experiment [2], this substance yielded an in vitro MgCh activity in 0.15 mM β-DM: 1 μM purified His-BCM1 against assays without BCM1 or with 1 μM GST of 3 fold; an in vitro MgCh activity with His-GUN4 and the three MgCh subunits: yeast membranes holding His-BCM1 against control membranes without BCM1 of 12%.

(Values after publication PMC7083845.)
